According to paper PMC8429893, “CTP regulates membrane-binding activity of the nucleoid occlusion protein Noc” (Molecular Cell, 2021):
Substitutions are numbered along the chain they refer to. Names may count otherwise.

Experiments:
[1] = molecular target: Geobacillus thermoleovorans NocNΔ26ΔCTD (Geobacillus thermoleovorans); experiment: crystal structure; G. thermoleovorans NocNΔ26ΔCTD, premixed with 1 mM CTPγS and 1 mM MgCl2 (no nucleotide in the density), 2.95 Å, space group C222(1), one copy per asymmetric unit; dimer with a symmetry mate
[2] = molecular target: T1, Noc (nucleoid occlusion protein) (Bacillus subtilis, UniProt P37524); experiment: ITC; type: binding
T1 construct: B. subtilis Noc (WT), His6-tagged

Noc (N121S) [3] = molecular target: T2, Noc (N121S) (Bacillus subtilis, UniProt P37524, N121S); experiment: ITC; type: binding
T2 construct: B. subtilis Noc (N121S), His6-tagged
T2 sequence (P37524 whole entry N121S): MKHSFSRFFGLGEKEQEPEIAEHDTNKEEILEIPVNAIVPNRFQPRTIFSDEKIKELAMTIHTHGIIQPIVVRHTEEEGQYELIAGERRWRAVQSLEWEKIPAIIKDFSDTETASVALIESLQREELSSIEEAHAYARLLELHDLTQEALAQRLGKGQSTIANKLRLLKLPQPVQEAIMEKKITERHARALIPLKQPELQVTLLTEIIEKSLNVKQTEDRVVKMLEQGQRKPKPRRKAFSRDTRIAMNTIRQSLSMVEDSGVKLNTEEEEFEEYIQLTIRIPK

Noc [4] = molecular target: T3, Noc (Bacillus subtilis, UniProt P37524 1-283); experiment: BLI; 1 mM CTP; no increase beyond nucleation; BLI: 100 mM Tris-HCl pH 8.0, 150 mM NaCl, 1 mM MgCl2, 0.005% Tween 20, 22 C; 1 uM Noc dimer +/- 1 mM NTP; settings: protein: recombinant; tags: C-terminal His6; chain copies: 2; label: biotin at M13F end; 5' overhang 4 nt (GATC) at BamHI end
T3 sequence: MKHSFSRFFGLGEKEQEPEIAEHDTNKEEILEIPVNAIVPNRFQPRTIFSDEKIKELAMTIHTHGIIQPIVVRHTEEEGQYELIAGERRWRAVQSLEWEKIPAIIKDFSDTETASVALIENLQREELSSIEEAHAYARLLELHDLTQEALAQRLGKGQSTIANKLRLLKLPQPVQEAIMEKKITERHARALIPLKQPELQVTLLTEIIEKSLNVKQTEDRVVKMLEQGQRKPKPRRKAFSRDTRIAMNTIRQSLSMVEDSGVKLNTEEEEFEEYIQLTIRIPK

[5] = molecular target: the molecule itself; experiment: cross-linking; BMOE (1 mM) cysteine crosslinking of 10 uM Noc variant ± 1 mM NTP ± 1 uM 22 bp NBS/parS DNA; 10 mM Tris-HCl pH 7.4, 200 mM NaCl, 1 mM MgCl2; 10 min at 22°C; SDS-PAGE, Coomassie, band quantification; reads self-engagement of the N-terminal domain
Noc [6] = molecular target: T3, Noc; experiment: BLI; 1 mM CTP; BLI: 100 mM Tris-HCl pH 8.0, 150 mM NaCl, 1 mM MgCl2, 0.005% Tween 20, 22 C; 1 uM Noc dimer +/- 1 mM NTP; settings: protein: recombinant; tags: C-terminal His6; chain copies: 2; label: biotin on both ends; blunt
Noc (R89A) = molecular target: T4, Noc (R89A) (Bacillus subtilis, UniProt P37524 1-283, R89A); experiment: BLI; 1 mM CTP; nucleates, does not spread; BLI: 100 mM Tris-HCl pH 8.0, 150 mM NaCl, 1 mM MgCl2, 0.005% Tween 20, 22 C; 1 uM Noc dimer +/- 1 mM NTP; settings: protein: recombinant; tags: C-terminal His6; chain copies: 2; label: biotin on both ends; blunt
T4 sequence: T3 sequence with R89A

Noc (N121S) [7] = molecular target: T5, Noc (N121S) (Bacillus subtilis, UniProt P37524 1-283, N121S); experiment: as above; settings: protein: recombinant; tags: C-terminal His6; chain copies: 2; label: biotin on both ends; blunt
T5 sequence: T3 sequence with N121S

Noc [8] = molecular target: T3, Noc; experiment: BLI; 1 uM Noc; 1 mM CTP; BLI: 100 mM Tris-HCl pH 8.0, 150 mM NaCl, 1 mM MgCl2, 0.005% Tween 20, 22 C; 1 uM Noc dimer +/- 1 mM NTP; settings: protein: recombinant; tags: C-terminal His6; chain copies: 2; label: biotin on both ends; blunt

Question: For “Geobacillus thermoleovorans NocNΔ26ΔCTD (domain or fragment)”, which stoichiometry N [1] is on record?
Answer: 2

Question: What does the source list for `Nc1ccn([C@@H]2O[C@H](COP(=O)(O)OP(=O)(O)OP(O)(O)=S)[C@@H](O)[C@H]2O)c(=O)n1` [CTPɣS]?
Answer: Kd [2]: 68 ± 23 µM; Kd (Noc (N121S) [3]): 232 ± 66 µM

B1: 170 bp NBS DNA, BamHI-cut (open) (dsDNA)
DNA 1: CGCCAGGGTTTTCCCAGTCACGACGTTGTAAAACGACGGCCAGAATTCGCAACGTGTATTTCCCGGGAAATAGCCTTGAACTGATAACGACTCTATCATTGATAGAGTGTTCTCTCCACGG
DNA 2: GATCCCGTGGAGAGAACACTCTATCAATGATAGAGTCGTTATCAGTTCAAGGCTATTTCCCGGGAAATACACGTTGCGAATTCTGGCCGTCGTTTTACAACGTCGTGACTGGGAAAACCCTGGCG
Question: Does B1 bind (Noc [4])?
Answer: binds

B2: B. subtilis NocNΔ10 (E29C) (domain or fragment, Bacillus subtilis, UniProt P37524 11-283, looked up)
chain: LGEKEQEPEIAEHDTNKECILEIPVNAIVPNRFQPRTIFSDEKIKELAMTIHTHGIIQPIVVRHTEEEGQYELIAGERRWRAVQSLEWEKIPAIIKDFSDTETASVALIENLQREELSSIEEAHAYARLLELHDLTQEALAQRLGKGQSTIANKLRLLKLPQPVQEAIMEKKITERHARALIPLKQPELQVTLLTEIIEKSLNVKQTEDRVVKMLEQGQRKPKPRRKAFSRDTRIAMNTIRQSLSMVEDSGVKLNTEEEEFEEYIQLTIRIPK
Question: Does B2 bind [5]?
Answer: binds

B3: 170 bp NBS DNA, closed (dsDNA)
DNA 1: CGCCAGGGTTTTCCCAGTCACGACGTTGTAAAACGACGGCCAGAATTCGCAACGTGTATTTCCCGGGAAATAGCCTTGAACTGATAACGACTCTATCATTGATAGAGTGTTCTCTCCACGGGATCCCCAGGCATGCAAGCTTGGCGTAATCATGGTCATAGCTGTTTCCT
DNA 2: AGGAAACAGCTATGACCATGATTACGCCAAGCTTGCATGCCTGGGGATCCCGTGGAGAGAACACTCTATCAATGATAGAGTCGTTATCAGTTCAAGGCTATTTCCCGGGAAATACACGTTGCGAATTCTGGCCGTCGTTTTACAACGTCGTGACTGGGAAAACCCTGGCG
Question: Which binding signal (Noc [6]) does the source give for B3 here?
Answer: ~6 fold BLI response vs no CTP

Question: Does B3 bind (Noc (R89A))?
Answer: binds

Question: Does B3 bind (Noc (N121S) [7])?
Answer: binds

B4: 170 bp parS DNA, closed (dsDNA)
DNA 1: B3 DNA 1 with A58G, C63A, G66T, T71C
DNA 2: B3 DNA 2 with A100G, C105A, G108T, T113C
Question: Does B4 bind (Noc [8])?
Answer: no binding
